Data set [1] deals with the molecule itself. Nature of the data set: SEC; purified 15N-labelled RitRALR (ALR domain only) wild-type and Ala mutants; oligomeric state.
For data set [2], the target named is RitR FL L90A (Streptococcus pneumoniae R800, UniProt A0ACD7PPZ9 1-229, L90A). Nature of the data set: EMSA; 20 mM HEPES pH 7.2, 5 mM MgCl2, 1 mM CaCl2, 0.1 mM EDTA, 10 mM DTT, 10% glycerol, 0.5 uM DNA, 800 ng poly(dI-dC) in 20 ul, room temperature 10 min; 4% native TAE PAGE. Particulars: protein: recombinant; tags: His6-SUMO removed by ULP1; chain copies: 2; label: 5' HEX on strand 1; blunt.

Data set [3] addresses RitR FL F96G (Streptococcus pneumoniae R800, UniProt A0ACD7PPZ9 1-229, F96G). Described as above. The conditions noted are these: protein: recombinant; tags: His6-SUMO removed by ULP1; chain copies: 2; label: 5' HEX on strand 1; blunt.
Data set [4] deals with RitR FL L86A (Streptococcus pneumoniae R800, UniProt A0ACD7PPZ9 1-229, L86A). Described as above. The conditions noted are these: protein: recombinant; tags: His6-SUMO removed by ULP1; chain copies: 2; label: 5' HEX on strand 1; blunt.
The target in data set [5] is RitR FL L86A/V93A (Streptococcus pneumoniae R800, UniProt A0ACD7PPZ9 1-229, L86A;V93A). The data set is described as above. Particulars: protein: recombinant; tags: His6-SUMO removed by ULP1; chain copies: 2; label: 5' HEX on strand 1; blunt.
The target of data set [6] is RitR FL wild-type (Streptococcus pneumoniae R800, UniProt A0ACD7PPZ9 1-229). Nature of the data set: EMSA; up to 6.6 uM protein; 20 mM HEPES pH 7.2, 5 mM MgCl2, 1 mM CaCl2, 0.1 mM EDTA, 10 mM DTT, 10% glycerol, 0.5 uM DNA, 800 ng poly(dI-dC) in 20 ul, room temperature 10 min; 4% native TAE PAGE. Particulars: protein: recombinant; tags: His6-SUMO removed by ULP1; chain copies: 2; label: 5' HEX on strand 1; blunt.

Data set [7] addresses RitR FL Y100A (Streptococcus pneumoniae R800, UniProt A0ACD7PPZ9 1-229, Y100A). The data set can be described thus: EMSA; binding seen at 0.22 uM protein; 20 mM HEPES pH 7.2, 5 mM MgCl2, 1 mM CaCl2, 0.1 mM EDTA, 10 mM DTT, 10% glycerol, 0.5 uM DNA, 800 ng poly(dI-dC) in 20 ul, room temperature 10 min; 4% native TAE PAGE. The conditions noted are these: protein: recombinant; tags: His6-SUMO removed by ULP1; chain copies: 2; label: 5' HEX on strand 1; blunt.

The target of data set [8] is RitR FL D81A (Streptococcus pneumoniae R800, UniProt A0ACD7PPZ9 1-229, D81A). Described as above. The conditions noted are these: protein: recombinant; tags: His6-SUMO removed by ULP1; chain copies: 2; label: 5' HEX on strand 1; blunt.
Data set [9] deals with the molecule itself. Nature of the data set: SEC; RitRFL wild-type and mutants; Agilent 1220 HPLC, BioBasic SEC-300A column, 50 mM TRIS pH 8.0, 150 mM NaCl, 10 mM DTT; proteins pre-treated with 10 mM DTT; 0.5 ml/min, ambient temperature.

This note sets out measurements from PMC4395418, “The Aspartate-Less Receiver (ALR) Domains: Distribution, Structure and Function” (PLoS Pathogens, 2015).

B1: RitR ALR (REC) receiver domain, Leu86 to Ala mutant (domain or fragment)
chain: MGKRILLLEKERNLAHFLSLELQKEQYRVDLVEEGQKALSMALQTDYDLILLNVNLGDMMAQDFAEKLSRTKPASVIMILDHWEDAQEELEVVQRFAVSYIYKPVLIENLVARISAIFRGRDFIG
notes: RitR, Streptococcus pneumoniae strain R800, ALR (REC) domain, amino acids Met1-Ile124, Ala substitution of Leu86; extra C-terminal glycine residue; PDB 4LZL is the wild-type parent of the same limits; also called RitRALR Leu86 mutant; source: E. coli BL21 DE3, 15N-labelled in M9 medium, purified (Ni-NTA, ULP1 cleavage, subtractive Ni-NTA); not shown: His6, N-terminal, cleaved; SUMO, N-terminal, …
With B1, in data set [1], the “stoichiometry N” value stood at 2.

B2: RitR ALR (REC) receiver domain, Leu90 to Ala mutant (domain or fragment)
chain: MGKRILLLEKERNLAHFLSLELQKEQYRVDLVEEGQKALSMALQTDYDLILLNVNLGDMMAQDFAEKLSRTKPASVIMILDHWEDLQEEAEVVQRFAVSYIYKPVLIENLVARISAIFRGRDFIG
notes: RitR, Streptococcus pneumoniae strain R800, ALR (REC) domain, amino acids Met1-Ile124, Leu90 changed to Ala; extra C-terminal glycine residue; PDB 4LZL is the wild-type parent of the same limits; also called RitRALR Leu90>Ala mutant; Leu90 mutant; source: E. coli BL21 DE3, 15N-labelled in M9 medium, purified (Ni-NTA, ULP1 cleavage, subtractive Ni-NTA); not shown: His6, N-terminal, cleaved; SUMO, …
With B2, the “stoichiometry N” value in [1] was found to be 2.

B3: BS2 33-mer (dsDNA)
DNA 1: ATTTTATTGACAGATTAGAAAAATAATGTTACA
DNA 2: TGTAACATTATTTTTCTAATCTGTCAATAAAAT
In the case of B3, the binding result in [2] is “binds”; in data set [3], “no binding”; in data set [4] it was “binds”; in data set [5] it was “binds”; in data set [6] it was “no binding”; in data set [7], “binds”. Besides, the binding result in data set [8] is “binds”.

B4: RitR full-length, Leu86 to Ala Gate mutant (natural protein)
chain: MGKRILLLEKERNLAHFLSLELQKEQYRVDLVEEGQKALSMALQTDYDLILLNVNLGDMMAQDFAEKLSRTKPASVIMILDHWEDAQEELEVVQRFAVSYIYKPVLIENLVARISAIFRGRDFIDQHCSLMKVPRTYRNLRIDVEHHTVYRGEEMIALTRREYDLLATLMGSKKVLTREQLLESVWKYESATETNIVDVYIRYLRSKLDVKGQKSYIKTVRGVGYTMQE
notes: RitR, Streptococcus pneumoniae strain R800, full-length, Gate residue Leu86 changed to Ala; also called RitRFL Leu86 mutant; source: E. coli BL21(DE3) or BL21(DE3)-Star, purified (Ni2+ agarose, ULP1 cleavage, subtractive Ni2+ column); not shown: His6, N-terminal, cleaved; SUMO, N-terminal, cleaved
As to B4, the “stoichiometry N” value in data set [9] was determined as 2.

B5: RitR full-length, Leu86/Val93 double mutant (natural protein)
chain: MGKRILLLEKERNLAHFLSLELQKEQYRVDLVEEGQKALSMALQTDYDLILLNVNLGDMMAQDFAEKLSRTKPASVIMILDHWEDAQEELEVAQRFAVSYIYKPVLIENLVARISAIFRGRDFIDQHCSLMKVPRTYRNLRIDVEHHTVYRGEEMIALTRREYDLLATLMGSKKVLTREQLLESVWKYESATETNIVDVYIRYLRSKLDVKGQKSYIKTVRGVGYTMQE
notes: RitR, Streptococcus pneumoniae strain R800, full-length, Val93 mutant combined with a Leu86 mutation (Ala); also called RitRFL Leu86/Val93 double mutant; source: E. coli BL21(DE3) or BL21(DE3)-Star, purified (Ni2+ agarose, ULP1 cleavage, subtractive Ni2+ column); not shown: His6, N-terminal, cleaved; SUMO, N-terminal, cleaved
With B5, the “stoichiometry N” value in data set [9] turned out to be 2.

B6: RitR full-length, Leu90 to Ala Gate mutant (natural protein)
chain: MGKRILLLEKERNLAHFLSLELQKEQYRVDLVEEGQKALSMALQTDYDLILLNVNLGDMMAQDFAEKLSRTKPASVIMILDHWEDLQEEAEVVQRFAVSYIYKPVLIENLVARISAIFRGRDFIDQHCSLMKVPRTYRNLRIDVEHHTVYRGEEMIALTRREYDLLATLMGSKKVLTREQLLESVWKYESATETNIVDVYIRYLRSKLDVKGQKSYIKTVRGVGYTMQE
notes: RitR, Streptococcus pneumoniae strain R800, full-length, Gate residue Leu90 changed to Ala; also called RitRFL Leu90 mutant; source: E. coli BL21(DE3) or BL21(DE3)-Star, purified (Ni2+ agarose, ULP1 cleavage, subtractive Ni2+ column); not shown: His6, N-terminal, cleaved; SUMO, N-terminal, cleaved
Regarding B6, the “stoichiometry N” value in [9] turned out to be 2.

B7: RitR full-length, Val93 to Ala Gate mutant (natural protein)
chain: MGKRILLLEKERNLAHFLSLELQKEQYRVDLVEEGQKALSMALQTDYDLILLNVNLGDMMAQDFAEKLSRTKPASVIMILDHWEDLQEELEVAQRFAVSYIYKPVLIENLVARISAIFRGRDFIDQHCSLMKVPRTYRNLRIDVEHHTVYRGEEMIALTRREYDLLATLMGSKKVLTREQLLESVWKYESATETNIVDVYIRYLRSKLDVKGQKSYIKTVRGVGYTMQE
notes: RitR, Streptococcus pneumoniae strain R800, full-length, Ala substitution of Gate residue Val93; also called RitRFL Val93 mutant; source: E. coli BL21(DE3) or BL21(DE3)-Star, purified (Ni2+ agarose, ULP1 cleavage, subtractive Ni2+ column); not shown: His6, N-terminal, cleaved; SUMO, N-terminal, cleaved
Consider B7, for which, in data set [9], the “stoichiometry N” value came out at 2.
